From patent publication US20220229058A1 come the findings set out here.

Where no end group is shown, it is not given here.

In assay [1] the target is norovirus GII.17 Saitama strain virus-like particle (VLP) (norovirus GII.17 Saitama strain). In words: BLI (BLItz), biotinylated peptide on SA chip, VLP in solution.
Assay [2] deals with norovirus GII.3 TCH strain virus-like particle (VLP) (norovirus GII.3 TCH strain). The description is as above.

B1: norovirus-binding peptide of SEQ ID NO: 48 (peptide)
peptide: ICSSWFPSVH
modifications: also: biotinylated, residue not given here, spacer sequence added, letters and position not given here
The term Kd denotes a measure of binding affinity in units of concentration. Read a high Kd as lower affinity. As usually defined, the koff is the first-order rate constant of dissociation. As usually defined, the kon is a measure of how fast the partners come together. A higher kon goes with faster complex formation. For B1, in assay [1], the Kd stood at 0.0766 µM, the off-rate constant (koff) came to 0.0978 s⁻¹ and the kon turned out to be 1.28e+06 M⁻¹ s⁻¹. In assay [2], this molecule returned a Kd of 0.0303 µM, a koff of 0.0246 s⁻¹ and a kon of 810000 M⁻¹ s⁻¹.

B2: norovirus-binding peptide of SEQ ID NO: 156 (peptide)
peptide: VVGFGRRSLF
modifications: also: biotinylated, residue not given here, spacer sequence added, letters and position not given here
In assay [1], B2 showed a Kd of 234 µM, a koff of 0.0931 s⁻¹ and a kon of 398 M⁻¹ s⁻¹. In addition, in assay [2], the Kd came out at 1.06 µM, the koff was found to be 0.0713 s⁻¹ and the kon worked out at 67300 M⁻¹ s⁻¹.

B3: norovirus-binding peptide of SEQ ID NO: 150 (peptide)
peptide: VCVDNDISMS
modifications: also: biotinylated, residue not given here, spacer sequence added, letters and position not given here
In assay [1], B3 came in with a Kd of 2510 µM and a koff of 0.255 s⁻¹. For the same molecule, in assay [2], the Kd was determined as 0.437 µM, the dissociation rate constant (koff) was 0.0118 s⁻¹ and the kon is 27000 M⁻¹ s⁻¹.

B4: norovirus-binding peptide of SEQ ID NO: 43 (peptide)
peptide: YVIRNSDRHN
modifications: also: biotinylated, residue not given here, spacer sequence added, letters and position not given here
With B4, in assay [1], the Kd came out at 234 µM, the koff stood at 0.192 s⁻¹ and the kon was determined as 822 M⁻¹ s⁻¹. In assay [2], the Kd came out at 0.0672 µM, the koff amounted to 0.0793 s⁻¹ and the kon stood at 1.18e+06 M⁻¹ s⁻¹.

B5: norovirus-binding peptide of SEQ ID NO: 131 (peptide)
peptide: NFRVPIRFTH
modifications: also: biotinylated, residue not given here, spacer sequence added, letters and position not given here
Take B5: in assay [2], the Kd stood at 157 µM, the koff came out at 0.262 s⁻¹ and the kon came out at 1660 M⁻¹ s⁻¹.

B6: norovirus-binding peptide of SEQ ID NO: 52 (peptide)
peptide: KYRATICHTV
modifications: also: biotinylated, residue not given here, spacer sequence added, letters and position not given here
As to B6, in assay [1], the Kd is 0.0179 µM, the off-rate constant (koff) was 0.0232 s⁻¹ and the association rate constant (kon) is 1.29e+06 M⁻¹ s⁻¹. In assay [2], this molecule had a Kd of 0.0138 µM, a koff of 0.0103 s⁻¹ and a kon of 747000 M⁻¹ s⁻¹.

B7: norovirus-binding peptide of SEQ ID NO: 155 (peptide)
peptide: VELFLLTSSC
modifications: also: biotinylated, residue not given here, spacer sequence added, letters and position not given here
Regarding B7, in assay [2], the Kd came to 803 µM, the koff is 0.0926 s⁻¹ and the kon amounted to 115 M⁻¹ s⁻¹.

B8: norovirus-binding peptide of SEQ ID NO: 143 (peptide)
peptide: YVVASKSNRL
modifications: also: biotinylated, residue not given here, spacer sequence added, letters and position not given here
Regarding B8, in assay [2], the Kd was 0.0135 µM, the koff came to 0.0044 s⁻¹ and the kon was 325000 M⁻¹ s⁻¹.

B9: norovirus-binding peptide of SEQ ID NO: 172 (peptide)
peptide: GCVGDLYCSA
modifications: cysteine pairing not given here; also: biotinylated, residue not given here, spacer sequence added, letters and position not given here
In assay [2], B9 yielded a Kd of 69.3 µM, a koff of 0.0131 s⁻¹ and a kon of 189 M⁻¹ s⁻¹.

B10: norovirus-binding peptide of SEQ ID NO: 154 (peptide)
peptide: ECMGRRWMSS
modifications: also: biotinylated, residue not given here, spacer sequence added, letters and position not given here
In assay [2], B10 yielded a Kd of 0.123 µM, a koff of 0.0173 s⁻¹ and a kon of 141000 M⁻¹ s⁻¹.

B11: norovirus-binding peptide of SEQ ID NO: 59 (peptide)
peptide: YRRSKSEIFV
modifications: also: biotinylated, residue not given here, spacer sequence added, letters and position not given here
Take B11: in assay [1], the Kd came out at 0.383 µM, the koff was found to be 0.0511 s⁻¹ and the kon worked out at 134000 M⁻¹ s⁻¹. In assay [2], this molecule returned a Kd of 0.00887 µM, a koff of 0.00714 s⁻¹ and a kon of 805000 M⁻¹ s⁻¹.

B12: norovirus-binding peptide of SEQ ID NO: 163 (peptide)
peptide: SVMVTRSLFG
modifications: also: biotinylated, residue not given here, spacer sequence added, letters and position not given here
As for B12, in assay [1], the Kd worked out at 0.168 µM, the koff was 0.0185 s⁻¹ and the kon is 110000 M⁻¹ s⁻¹. Further, in assay [2], the Kd was found to be 0.00766 µM, the koff amounted to 0.00786 s⁻¹ and the kon was 1.03e+06 M⁻¹ s⁻¹.
